Assay results from article doi:10.1101/2023.07.25.550453 (bioRxiv, 2023).
Residue numbers refer to the chain shown, from its start. Names may count otherwise. Where two headings read alike, the source gives them in different places. Each block holds one molecule with its values, some of them ahead of it.

T1: nuclear cap-binding complex (CBC: CBP80ΔNLS + CBP20), human (human, UniProt Q09161 20-790; P52298 1-156)
T1 sequence 1: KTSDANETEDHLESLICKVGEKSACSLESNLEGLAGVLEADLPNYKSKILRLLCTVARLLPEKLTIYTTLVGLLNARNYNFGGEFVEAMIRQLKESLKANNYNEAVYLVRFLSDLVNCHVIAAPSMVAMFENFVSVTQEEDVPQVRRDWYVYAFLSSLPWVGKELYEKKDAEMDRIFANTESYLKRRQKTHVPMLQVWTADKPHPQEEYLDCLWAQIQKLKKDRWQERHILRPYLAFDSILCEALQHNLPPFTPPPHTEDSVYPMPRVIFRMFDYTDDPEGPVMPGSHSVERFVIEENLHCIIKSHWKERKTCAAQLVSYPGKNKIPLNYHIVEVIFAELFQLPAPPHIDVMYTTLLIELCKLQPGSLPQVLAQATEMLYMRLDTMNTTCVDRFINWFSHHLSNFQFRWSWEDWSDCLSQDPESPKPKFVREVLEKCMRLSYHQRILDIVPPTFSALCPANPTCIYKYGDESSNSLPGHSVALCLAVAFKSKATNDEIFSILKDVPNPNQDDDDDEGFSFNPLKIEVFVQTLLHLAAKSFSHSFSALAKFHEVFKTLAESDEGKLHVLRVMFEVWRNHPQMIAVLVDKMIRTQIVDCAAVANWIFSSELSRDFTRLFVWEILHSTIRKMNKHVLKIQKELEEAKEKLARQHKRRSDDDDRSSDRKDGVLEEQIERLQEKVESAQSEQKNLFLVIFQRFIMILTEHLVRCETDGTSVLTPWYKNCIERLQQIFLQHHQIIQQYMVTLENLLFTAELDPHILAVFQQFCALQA
T1 sequence 2: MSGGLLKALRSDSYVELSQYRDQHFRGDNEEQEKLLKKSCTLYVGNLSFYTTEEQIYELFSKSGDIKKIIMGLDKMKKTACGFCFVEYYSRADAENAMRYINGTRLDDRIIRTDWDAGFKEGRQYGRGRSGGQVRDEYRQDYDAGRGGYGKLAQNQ

T2: CBP80ΔNLS (NCBP1), human (human, UniProt Q09161 20-790)
T2 sequence (looked up): T1 sequence 1

B1: His-MBP-PHAX^103-196 (domain or fragment, human, UniProt Q9H814 103-196, looked up)
chain: SQKPPVAGGKKINNIWGAVLQEQNQDAVATELGILGMEGTIDRSRQSETYNYLLAKKLRKESQEHTKDLDKELDEYMHGGKKMGSKEEENGQGH
B2: NELF-E^244-380 (domain or fragment, human, UniProt P18615 244-380, looked up)
chain: GPFRRSDSFPERRAPRKGNTLYVYGEDMTPTLLRGAFSPFGNIIDLSMDPPRNCAFVTYEKMESADQAVAELNGTQVESVQLKVNIARKQPMLDAATGKSVWGSLAVQNSPKGCHRDKRTQIVYSDDVYKENLVDGF
B3: NELF-E^244-380 (W345E) (domain or fragment, human, UniProt P18615 244-380, looked up)
chain: B2 chain with W102E
B4: CBP20 (NCBP2), human (natural protein)
chain: T1 sequence 2
B5: MBP-ZC3H18^117-258 (domain or fragment)
chain: SSVTRELDEHELDYDEEVPEEPAPAVQEDEAEKAGAEDDEEKGEGTPREEGKAGVQSVGEKESLEAAKEKKKEDDDGEIDDGEIDDDDLEEGEVKDPSDRKVRPRPTCRFFMKGNCTWGMNCRFIHPGVNDKGNYSLITKAD
B6: His-MBP-NCBP3^360-620 (domain or fragment, human, UniProt Q53F19 360-620, looked up)
chain: DQDMDADDRVVVEYHEELPALKQPRERSASRRSSASSSDSDEMDYDLELKMISTPSPKKSMKMTMYADEVESQLKNIRNSMRADSVSSSNIKNRIGNKLPPEKFADVRHLLDEKRQHSRPRPPVSSTKSDIRQRLGKRPHSPEKAFSSNPVVRREPSSDVHSRLGVPRQDSKGLYADTREKKSGNLWTRLGSAPKTKEKNTKKVDHRAPGAEEDDSELQRAWGALIKEKEQSRQKKSRLDNLPSLQIEVSRESSSGSEAES
B7: His-MBP-NCBP3^560-620 (domain or fragment, human, UniProt Q53F19 560-620, looked up)
chain: TKKVDHRAPGAEEDDSELQRAWGALIKEKEQSRQKKSRLDNLPSLQIEVSRESSSGSEAES
B8: NCBP3^560-620 (tag cleaved, cryo-EM sample) (domain or fragment, human, UniProt Q53F19 560-620, looked up)
chain: B7 chain

Assays:
[1] = molecular target: ZC3H18 double ARM motif peptide, biotinylated (human); test: BLI
[2] = molecular target: PHAX^1-18 peptide (ARM 9-EDGQL), biotinylated (human) (UniProt Q9H814); test: BLI
ARS2^147-871 (human) [3] = test: ITC
[4] = molecular target: T1, nuclear cap-binding complex (CBC: …); test: ITC
[5] = molecular target: T1, nuclear cap-binding complex (CBC: …); test: SPR
ARS2^147-871 (human) [6] = test: ITC; remark: listed apart in the source
[7] = molecular target: CBP80 (delta NLS);CBP20;PHAX (human;human;human, UniProt Q09161;P52298;Q9H814 20-790;1-156;1-394, del1-19||); test: cryo-EM
Sequence of CBP80 (delta NLS);CBP20;PHAX (Q9H814 whole entry, stated change not applied, one chain of several): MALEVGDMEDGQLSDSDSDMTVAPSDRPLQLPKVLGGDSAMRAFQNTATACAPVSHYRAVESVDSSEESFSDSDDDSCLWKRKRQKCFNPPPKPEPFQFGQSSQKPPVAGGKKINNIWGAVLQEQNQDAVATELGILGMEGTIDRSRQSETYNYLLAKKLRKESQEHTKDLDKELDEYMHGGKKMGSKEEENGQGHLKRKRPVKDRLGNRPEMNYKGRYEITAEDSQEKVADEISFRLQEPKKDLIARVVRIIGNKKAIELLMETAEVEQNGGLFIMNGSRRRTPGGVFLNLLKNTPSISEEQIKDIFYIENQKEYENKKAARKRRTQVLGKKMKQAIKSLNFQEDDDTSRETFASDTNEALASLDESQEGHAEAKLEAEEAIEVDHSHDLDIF

[8] = molecular target: T1, nuclear cap-binding complex (CBC: …); test: ITC; remark: listed apart in the source
CBP80ΔNLS (NCBP1), human = molecular target: T2, CBP80ΔNLS (NCBP1), human; test: cryo-EM structure
full-length PHAX = full-length PHAX (human, UniProt Q9H814 1-394); test: cryo-EM structure
Sequence of full-length PHAX (human, UniProt Q9H814 1-394) (Q9H814 whole entry): as the sequence (Q9H814 whole entry, stated change not applied, one chain of several) above

[9] = molecular target: T1, nuclear cap-binding complex (CBC: …); test: pull-down
[10] = molecular target: T1, nuclear cap-binding complex (CBC: …); test: ITC; remark: listed apart in the source
CBP20 (NCBP2), human = molecular target: B4; test: cryo-EM structure

Kd [1]: 7700 nM
Kd [2]: 6100 nM
Molecule: ARS2^147-871 (domain or fragment)

Kd (ARS2^147-871 (human) [3]): 4100 nM
Molecule: full-length PHAX (from UniProt Q9H814 1-394) (natural protein)

Molecule: B1
Kd [4]: 2400 nM

Kd [5]: 150 nM
Molecule: ESAWERGLRHAKEVLKKATIRKEQEPDFEEKRFTVTIGEDER (domain or fragment, human, UniProt Q86VM9 298-339, looked up) [His-MBP-ZC3H18^298-339]

Kd (ARS2^147-871 (human) [6]): 3500 nM
Molecule: KESLEAAKEKKKEDDDGEIDDGEIDDDDLEEGEVKDPSD (domain or fragment) [MBP-ZC3H18^177-215]

Molecule: AAUCUAUAAUAG (ssRNA, 5' m7Gppp cap) [capped 12-mer RNA (m7Gppp-AAUCUAUAAUAG)]
binding result [7]: binds

Molecule: B2
Kd [8]: 113 nM

Molecule: B3
Kd [8]: 1300 nM

Molecule: B4
binding result (CBP80ΔNLS (NCBP1), human): binds
binding result (full-length PHAX): binds

Molecule: B5
Kd (ARS2^147-871 (human) [6]): 700 nM

Molecule: B6
binding result [9]: binds

Kd [8]: 6000 nM
Molecule: TKKVDHRAPGAEEDDSELQRAWGALIKEKEQ (domain or fragment, human, UniProt Q53F19 560-590, looked up) [NCBP3^560-620 truncated to residue 590]

Kd [8]: 222 nM
Molecule: TKKVDHRAPGAEEDDSELQRAWGALIKEKEQSRQKKSR (domain or fragment, human, UniProt Q53F19 560-597, looked up) [NCBP3^560-620 with C-terminal residues 598-620 removed]

Molecule: B7
Kd [4]: ~115 nM
Kd [10]: ~173 nM

Molecule: B8
binding result (CBP20 (NCBP2), human): binds
